Results taken from paper PMC7099567, “Enzymatic Synthesis of 2-Keto-3-Deoxy-6-Phosphogluconate by the 6-Phosphogluconate-Dehydratase From Caulobacter crescentus” (Frontiers in Bioengineering and Biotechnology, 2020).

Assays:
[1] = target: the molecule itself; assay: SEC; HiLoad 26/60 Superdex 200 prep grade; buffer C (50 mM HEPES/KOH, 300 mM NaCl, 5 mM MnCl, pH 8); isocratic flow 2 ml min^-1; native mass compared with the subunit mass from SDS-PAGE
purified protein = substrate: O=C(O)[C@H](O)[C@@H](O)[C@H](O)[C@H](O)COP(=O)(O)O; assay: purified protein; format: biochemical, Caulobacter vibrioides; conditions: 100 mM HEPES pH 8.0, 37 C, 0.2 mM NADH, enzyme purified and stored with 5 mM MnCl2

B1: 6-phosphogluconate dehydratase/Entner-Doudoroff dehydratase (EDD) from Caulobacter crescentus (enzyme, UniProt A0A0H3CB86 1-602, looked up)
chain: MSLNPVIADVTARIVARSKDSRAAYLANMDRAIENQPGRAKLSCANWAHAFAASPGVDKLRALDPNAPNIGIVSAYNDMLSAHQPLEAYPALIKDAARDVGATAQFAGGVPAMCDGVTQGRPGMELSLFSRDVIAMATAVALTHDAFDSALYLGVCDKIVPGLVIGALTFSHLPALFVPAGPMTSGLPNSEKARIRALYAEGKVGREELLAAESASYHGPGTCTFYGTANTNQMLMELMGFHLPGSAFVHPNTPLREALVKESARRVAAVTNKGNEFIPVGRMIDEKSFVNGVVGLMATGGSTNLALHIIAMAAAAGVQLTLEDLDDISKATPLLARVYPNGSADVNHFQAAGGMAFVIRELLKAGLVHEDVQTIAGAGLSLYAKEPVLEDGMLTWRDGAHESLDPAIVRPVSDPFSKEGGLRLMAGNLGRGVMKISAVKPEHHVIEAPCAVFQEQEDFIAAFKRGELDRDVVVVVRFQGPSANGMPELHNLSPSISVLLDRGHKVALVTDGRMSGASGKTPAAIHVTPEAAKGGPLAYVQDGDVIRVNAETGELKIMVDEATLLARTPANVPASKPGFGRELFGWMRSGVGAADAGASVFA
notes: Homodimer by size exclusion chromatography (130 kDa native, 63.2 kDa by SDS-PAGE); also called CcEDD; 6PG dehydratase; source: E. coli BL21 (DE3), pET15b, purified (Ni-TED)
- stoichiometry N [1]: 2
- Km (purified protein): 300 µM
